Data from patent US20150366960A1.
pKd: −log10 of the molar value. Like-named read-outs stand apart in the source and are kept apart here. Values belong to the substance of their own block, whether it stands above or below them.

Tests used:
[1] = molecular target: MARM A1 F protein (RSV A2 F, N208Y) (Human respiratory syncytial virus, D25-resistant mutant of strain A2) (UniProt P03420)
[2] = molecular target: MARM B1 F protein (RSV B 18537 F, N201D) (Human respiratory syncytial virus, D25-resistant mutant of strain 18537) (UniProt P13843)
[3] = molecular target: MARM B2 F protein (RSV B 18537 F, L204V) (Human respiratory syncytial virus, D25-resistant mutant of strain 18537) (UniProt P13843)
[4] = molecular target: RSV-B F protein from strain 18537 (wild type) (Human respiratory syncytial virus, strain 18537 (subtype B)) (UniProt P13843)
[5] = molecular target: MARM A1 F protein (RSV A2 F, N208Y) (Human respiratory syncytial virus, D25-resistant mutant of strain A2) (UniProt P03420); experiment: cell-based or functional assay
[6] = molecular target: MARM B1 F protein (RSV B 18537 F, N201D) (Human respiratory syncytial virus, D25-resistant mutant of strain 18537) (UniProt P13843); experiment: cell-based or functional assay
[7] = molecular target: MARM B2 F protein (RSV B 18537 F, L204V) (Human respiratory syncytial virus, D25-resistant mutant of strain 18537) (UniProt P13843); experiment: cell-based or functional assay
[8] = molecular target: RSV-B F protein from strain 18537 (wild type) (Human respiratory syncytial virus, strain 18537 (subtype B)) (UniProt P13843); experiment: cell-based or functional assay
[9] = molecular target: HR1 construct containing amino acids 153-221 of RSV A2 F protein (Human respiratory syncytial virus, strain A2)
[10] = molecular target: SK-epitope: amino acids 195-228 of RSV A2 F protein (C212S) in the inhibitor loop of Ecballium elate (Human respiratory syncytial virus, strain A2 (insert); Ecballium elaterium (scaffold))
[11] = molecular target: RSV-F protein (as used in the D25 competition binding assay) (respiratory syncytial virus, strain not stated)
[12] = molecular target: RSV A2 F protein on untreated cells (pre-fusion form) (Human respiratory syncytial virus, strain A2) (UniProt P03420)
[13] = molecular target: RSV-B F protein from strain 18537 (wild type) (Human respiratory syncytial virus, strain 18537 (subtype B)) (UniProt P13843); remark: listed apart in the source
[14] = molecular target: RSV A2 F protein on untreated cells (pre-fusion form) (Human respiratory syncytial virus, strain A2) (UniProt P03420); remark: listed apart in the source
[15] = molecular target: RSV A2 F protein on untreated cells (pre-fusion form) (Human respiratory syncytial virus, strain A2) (UniProt P03420); experiment: cell-based or functional assay
[16] = molecular target: MARM A1 F protein (RSV A2 F, N208Y) (Human respiratory syncytial virus, D25-resistant mutant of strain A2) (UniProt P03420); remark: listed apart in the source
[17] = molecular target: MARM B1 F protein (RSV B 18537 F, N201D) (Human respiratory syncytial virus, D25-resistant mutant of strain 18537) (UniProt P13843); remark: listed apart in the source
[18] = molecular target: MARM B2 F protein (RSV B 18537 F, L204V) (Human respiratory syncytial virus, D25-resistant mutant of strain 18537) (UniProt P13843); remark: listed apart in the source
[19] = molecular target: RSV-F protein (as used in the D25 competition binding assay) (respiratory syncytial virus, strain not stated); experiment: competition ELISA on infected cells against biotin-labeled D25 at 100 ng/ml constant, A450 [cont'd) D]

Substance: motavizumab (antibody)
IC50 (read off the curve) [1]: 0.1 µg/mL
IC50 (read off the curve) [2]: 0.06 µg/mL
IC50 (read off the curve) [3]: 0.04 µg/mL
IC50 (read off the curve) [4]: 0.1 µg/mL
RSV microneutralization assay (antibody concentration able to neutralize) [5]: < 100 ng/mL
RSV microneutralization assay (antibody concentration able to neutralize) [6]: < 100 ng/mL
RSV microneutralization assay (antibody concentration able to neutralize) [7]: < 100 ng/mL
RSV microneutralization assay (antibody concentration able to neutralize) [8]: < 100 ng/mL

Substance: monoclonal antibody D25
pKd [9]: 8.72
pKd [10]: 10.23
IC50 (read off the curve) [11]: 0.6 µg/mL
IC50 (read off the curve) [12]: 0.1 µg/mL
IC50 (read off the curve) [13]: 0.07 µg/mL
IC50 (read off the curve) [14]: 10 µg/mL
RSV microneutralization assay (antibody concentration able to neutralize) [15]: 1 µg/mL

Substance: palivizumab (antibody)
IC50 (read off the curve) [16]: 40 µg/mL
IC50 (read off the curve) [17]: 200 µg/mL
IC50 (read off the curve) [18]: 300 µg/mL
RSV microneutralization assay (antibody concentration able to neutralize) [5]: 100000 ng/mL
RSV microneutralization assay (antibody concentration able to neutralize) [6]: 100000 ng/mL
RSV microneutralization assay (antibody concentration able to neutralize) [7]: 100000 ng/mL

IC50 (read off the curve) [19]: 2 µg/mL
Substance: anti-RSV-F antibody AM22
